Assay results reported in paper PMC6676471.
Where no end group is shown, it is not given here. [ ]: non-standard residue; d: D form. 2Abz = Nc1ccccc1C(=O)O

Molecular target: tcFGE_(W228F), inactive variant of formylglycine generating enzyme from Thermomonospora curvata (Thermomonospora curvata) (UniProt D1A7C3)
Assay: ITC

Sequence of UniProt D1A7C3 (D1A7C3 20-303 W228F): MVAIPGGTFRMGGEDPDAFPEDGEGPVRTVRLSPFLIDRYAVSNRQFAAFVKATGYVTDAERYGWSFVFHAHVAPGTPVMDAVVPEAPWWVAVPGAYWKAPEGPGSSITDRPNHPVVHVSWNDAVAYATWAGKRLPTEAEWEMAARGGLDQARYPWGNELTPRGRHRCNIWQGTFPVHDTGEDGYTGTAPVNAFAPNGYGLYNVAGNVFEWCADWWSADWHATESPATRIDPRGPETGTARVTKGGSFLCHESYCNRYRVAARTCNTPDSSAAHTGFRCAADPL

**Q.** For [2Abz]ATTPLCGPSRASILSGR [FGE-27: Abz-…], which Kd is on record?
**A.** 0.04 µM
